For test [1], the target named is T1, human MICA allele MICA*001 (human, UniProt Q29983 24-297).
T1 construct: Expressed on transfected C1R cells; also called MICA*01; C1R-MICA*001
T1 sequence: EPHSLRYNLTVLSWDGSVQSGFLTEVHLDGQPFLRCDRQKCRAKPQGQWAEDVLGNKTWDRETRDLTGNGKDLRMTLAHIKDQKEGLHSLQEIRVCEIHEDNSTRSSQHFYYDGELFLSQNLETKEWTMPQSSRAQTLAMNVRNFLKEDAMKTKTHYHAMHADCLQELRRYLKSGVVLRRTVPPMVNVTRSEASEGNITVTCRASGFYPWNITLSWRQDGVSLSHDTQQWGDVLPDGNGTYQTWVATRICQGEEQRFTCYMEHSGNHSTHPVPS
The test is described as follows: flow cytometry, C1R-MICA*001 transfectant cells. As to the method: (§1) The binding of the antibodies in Table 2 of Example 1 were tested for binding to MICA-expressing C1R transfectant cells (ATCC reference CRL-1993™) transfected with RSV.5neo vectors (GenBank (NCBI) under Accession number M83237), as described in Salih et al. (2003) Blood 102(4): […], referred to as C1R-MICA*001, C1R-MICA*004, C1R-MICA*007 and C1R-MICA*008. Binding was analyzed by flow cytometry.
(§2) Cells were harvested and stained in PBS 1×/BSA 0.2%/EDTA 2 mM buffer during 30 minutes at 4° C. using a dose-range of the anti-MICA mAbs. After two washes in staining buffer, cells were stained for 30 min at 4° C. with mouse anti-human IgG1-PE monoclonal antibodies (1/11). After two washes, stainings were acquired on a BD FACS Canto II and analyzed using the FlowJo software.
Background: A flow cytometer gives signals particle by particle.

Test [2] concerns the target T2, human MICA allele MICA*004 (human, UniProt Q29983 24-297).
T2 construct: Expressed on transfected C1R cells; also called MICA*04; C1R-MICA*004
T2 chain: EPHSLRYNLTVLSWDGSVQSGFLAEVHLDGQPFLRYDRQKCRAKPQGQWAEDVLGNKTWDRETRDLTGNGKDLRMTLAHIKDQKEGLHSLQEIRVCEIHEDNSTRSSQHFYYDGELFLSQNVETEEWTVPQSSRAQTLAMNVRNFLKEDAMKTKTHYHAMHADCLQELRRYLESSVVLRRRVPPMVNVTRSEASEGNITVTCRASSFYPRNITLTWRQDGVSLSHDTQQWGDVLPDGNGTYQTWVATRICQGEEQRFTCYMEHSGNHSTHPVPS
The test is described as follows: flow cytometry, C1R-MICA*004 transfectant cells. As to the method: as §1, §2

The target of test [3] is T3, human MICA allele MICA*007 (human, UniProt Q29983 24-297).
T3 construct: Expressed on transfected C1R cells; also called MICA*07; C1R-MICA*007
T3 chain: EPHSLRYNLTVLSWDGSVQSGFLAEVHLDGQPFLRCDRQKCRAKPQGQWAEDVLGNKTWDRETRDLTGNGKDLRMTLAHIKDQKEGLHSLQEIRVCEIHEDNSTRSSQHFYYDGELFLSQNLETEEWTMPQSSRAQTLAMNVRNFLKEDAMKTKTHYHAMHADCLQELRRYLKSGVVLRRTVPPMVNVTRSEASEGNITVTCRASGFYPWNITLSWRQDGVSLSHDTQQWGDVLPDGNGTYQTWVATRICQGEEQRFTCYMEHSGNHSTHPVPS
Briefly: flow cytometry, C1R-MICA*007 transfectant cells. The method, then: as §1, §2

For test [4], the target named is T4, human MICA allele MICA*008 (human, UniProt Q29983 24-297).
T4 construct: Expressed on transfected C1R cells; also called MICA*08; C1R-MICA*008
T4 chain: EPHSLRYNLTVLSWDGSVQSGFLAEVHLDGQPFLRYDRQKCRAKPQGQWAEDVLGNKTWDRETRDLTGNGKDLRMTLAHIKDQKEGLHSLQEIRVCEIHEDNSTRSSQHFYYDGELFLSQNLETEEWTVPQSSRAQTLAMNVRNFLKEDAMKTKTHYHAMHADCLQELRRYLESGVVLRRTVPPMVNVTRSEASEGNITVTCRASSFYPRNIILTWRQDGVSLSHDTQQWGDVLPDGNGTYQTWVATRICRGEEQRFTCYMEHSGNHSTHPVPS
Briefly: flow cytometry, C1R-MICA*008 transfectant cells. The method, then:
as §1, §2

The target of test [5] is T1, human MICA allele MICA*001. Briefly: flow cytometry, C1R-MICA*001 transfectant cells; reference: parental antibody. As to the method:
as §1, §2

B1: mAb4 (antibody, V domains shown)
VH: QVQLQESGPGLVKPSETLSLTCTVSGYSITSDYAWNWIRQPPGKGLEWMGFVSYSGTTKYNPSLKSRVTISRDTSKNQFSLKLSSVTAADTAVYYCARGYGFDYWGQGTTVTVSS
VL: EIVLTQSPATLSLSPGERATLSCSATSSISSIYFHWYQQKPGQAPRLLIYRTSNLASGIPARFSGSGSGTDYTLTISSLEPEDFAVYYCQQGTTIPFTFGQGTKLEIK
notes: Produced in CHO cells as human IgG1 with huCk constant domain
With B1, the EC50 in test [1] was found to be 0.316 µg/mL; in test [2] it was 0.063 µg/mL; in test [3], 0.0875 µg/mL; in test [4], 0.0859 µg/mL.

B2: mAb5 (antibody, V domains shown)
VH: QVQLQESGPGLVKPSETLSLTCTVSGYSITSDYAWNWIRQPPGKGLEWMGFVSYSGTTKYNPSLKSRVTISRDTSKNQFSLKLSSVTAADTAVYYCARGYGFDYWGQGTTVTVSS
VL: EIVLTQSPATLSLSPGERATLSCSATSSISSIYFHWYQQKPGQAPRLLIYRTSNLASGIPARFSGSGSGTSYTLTISSLEPEDFAVYYCQQGTTIPFTFGQGTKLEIK
notes: as for B1
B2: the EC50 came to 0.318 µg/mL in test [1], 0.0762 µg/mL in test [2], 0.0493 µg/mL in test [3] and 0.0958 µg/mL in test [4].

B3: mAb12 (antibody, V domains shown)
VH: QVQLQESGPGLVKPSETLSLTCTVSGYSITSDYAWNWIRQPPGKGLEWMGFVSYSGTTKYNPSLKSRITISRDTSENQFSLKLSSVTAADTAVYYCARGYGFDYWGQGTTVTVSS
VL: EIVLTQSPATLSLSPGERATLSCSATSSISSIYFHWYQQKPGQAPRLLIYRTSNLASGIPARFSGSGSGTDYTLTISSLEPEDVAVYYCQQGTTIPFTFGQGTKLEIK
notes: as for B1
As for B3, the EC50 in test [1] was determined as 0.453 µg/mL; in test [2], 0.0672 µg/mL; in test [3], 0.086 µg/mL; in test [4] it was 0.0642 µg/mL.

B4: mAb2 (antibody, V domains shown)
VH: QVQLQESGPGLVKPSETLSLTCTVSGYSITSDYAWNWIRQPPGKGLEWIGFVSYSGTTKYNPSLKSRVTISRDTSKNQFSLKLSSVTAADTAVYYCARGYGFDYWGQGTTVTVSS
VL: EIVLTQSPATLSLSPGERATLSCSATSSISSIYFHWYQQKPGQAPRLLIYRTSNLASGIPARFSGSGSGTSYTLTISSLEPEDFAVYYCQQGTTIPFTFGQGTKLEIK
notes: as for B1
For B4, the EC50 is 0.151 µg/mL in test [1], 0.0381 µg/mL in test [2], 0.0502 µg/mL in test [3] and 0.0699 µg/mL in test [4]. For the same molecule, the “fold improvement in affinity compared to the parental antibody” value in test [5] was ~3 fold.

B5: mAb8 (antibody, V domains shown)
VH: QVQLQESGPGLVKPSETLSLTCTVSGYSITSDYAWNWIRQPPGKGLEWMGFVSYSGTTKYNPSLKSRVTISRDTSENQFSLKLSSVTAADTAVYYCARGYGFDYWGQGTTVTVSS
VL: EIVLTQSPATLSLSPGERATLSCSATSSISSIYFHWYQQKPGQAPRLLIYRTSNLASGIPARFSGSGSGTSYTLTISSLEPEDFAVYYCQQGTTIPFTFGQGTKLEIK
notes: as for B1
Take B5: the EC50 came to 0.191 µg/mL in test [1], 0.0481 µg/mL in test [2], 0.0462 µg/mL in test [3] and 0.0551 µg/mL in test [4].

B6: mAb6 (antibody, V domains shown)
VH: QVQLQESGPGLVKPSETLSLTCTVSGYSITSDYAWNWIRQPPGKGLEWMGFVSYSGTTKYNPSLKSRVTISRDTSKNQFSLKLSSVTAADTAVYYCARGYGFDYWGQGTTVTVSS
VL: EIVLTQSPATLSLSPGERATLSCSATSSISSIYFHWYQQKPGQAPRLLIYRTSNLASGIPARFSGSGSGTDYTLTISSLEPEDVAVYYCQQGTTIPFTFGQGTKLEIK
notes: as for B1
Regarding B6, the EC50 in test [1] came to 0.407 µg/mL; in test [2] it was 0.0838 µg/mL; in test [3] it was 0.0718 µg/mL; in test [4], 0.0953 µg/mL.

B7: mAb7 (antibody, V domains shown)
VH: QVQLQESGPGLVKPSETLSLTCTVSGYSITSDYAWNWIRQPPGKGLEWMGFVSYSGTTKYNPSLKSRVTISRDTSENQFSLKLSSVTAADTAVYYCARGYGFDYWGQGTTVTVSS
VL: EIVLTQSPATLSLSPGERATLSCSATSSISSIYFHWYQQKPGQAPRLLIYRTSNLASGIPARFSGSGSGTDYTLTISSLEPEDFAVYYCQQGTTIPFTFGQGTKLEIK
notes: as for B1
For the molecule B7, the EC50 turned out to be 0.288 µg/mL in test [1], 0.0616 µg/mL in test [2], 0.0668 µg/mL in test [3] and 0.0871 µg/mL in test [4].

B8: mAb3 (antibody, V domains shown)
VH: QVQLQESGPGLVKPSETLSLTCTVSGYSITSDYAWNWIRQPPGKGLEWIGFVSYSGTTKYNPSLKSRVTISRDTSKNQFSLKLSSVTAADTAVYYCARGYGFDYWGQGTTVTVSS
VL: EIVLTQSPATLSLSPGERATLSCSATSSISSIYFHWYQQKPGQAPRLLIYRTSNLASGIPARFSGSGSGTDYTLTISSLEPEDVAVYYCQQGTTIPFTFGQGTKLEIK
notes: as for B1
With B8, the EC50 in test [1] was 0.265 µg/mL; in test [2], 0.0608 µg/mL; in test [3], 0.0612 µg/mL; in test [4], 0.0822 µg/mL.

B9: mAb9 (antibody, V domains shown)
VH: QVQLQESGPGLVKPSETLSLTCTVSGYSITSDYAWNWIRQPPGKGLEWMGFVSYSGTTKYNPSLKSRVTISRDTSENQFSLKLSSVTAADTAVYYCARGYGFDYWGQGTTVTVSS
VL: EIVLTQSPATLSLSPGERATLSCSATSSISSIYFHWYQQKPGQAPRLLIYRTSNLASGIPARFSGSGSGTDYTLTISSLEPEDVAVYYCQQGTTIPFTFGQGTKLEIK
notes: as for B1
Take B9: the EC50 in test [1] stood at 0.318 µg/mL; in test [2], 0.0438 µg/mL; in test [3], 0.0519 µg/mL; in test [4], 0.0515 µg/mL.

B10: mAb11 (antibody, V domains shown)
VH: QVQLQESGPGLVKPSETLSLTCTVSGYSITSDYAWNWIRQPPGKGLEWMGFVSYSGTTKYNPSLKSRITISRDTSENQFSLKLSSVTAADTAVYYCARGYGFDYWGQGTTVTVSS
VL: EIVLTQSPATLSLSPGERATLSCSATSSISSIYFHWYQQKPGQAPRLLIYRTSNLASGIPARFSGSGSGTSYTLTISSLEPEDFAVYYCQQGTTIPFTFGQGTKLEIK
notes: as for B1
As to B10, the EC50 turned out to be 0.32 µg/mL in test [1], 0.0614 µg/mL in test [2], 0.0513 µg/mL in test [3] and 0.0789 µg/mL in test [4].

B11: mAb10 (antibody, V domains shown)
VH: QVQLQESGPGLVKPSETLSLTCTVSGYSITSDYAWNWIRQPPGKGLEWMGFVSYSGTTKYNPSLKSRITISRDTSENQFSLKLSSVTAADTAVYYCARGYGFDYWGQGTTVTVSS
VL: EIVLTQSPATLSLSPGERATLSCSATSSISSIYFHWYQQKPGQAPRLLIYRTSNLASGIPARFSGSGSGTDYTLTISSLEPEDFAVYYCQQGTTIPFTFGQGTKLEIK
notes: as for B1
In the case of B11, the EC50 in test [1] is 0.307 µg/mL; in test [2], 0.0631 µg/mL; in test [3], 0.0498 µg/mL; in test [4], 0.144 µg/mL.

A word on the EC50: it is the concentration at which the effect is half-maximal. Read a high EC50 as a less potent agent.

The values are drawn from patent US20170267764A1 (INNATE PHARMA, published 2017).
